The target in the assay is T1, 重组人B7-H3蛋白 (recombinant human B7-H3-ECD protein, 11188-H08H, SinoBiological) (human, UniProt Q5ZPR3 29-466).
T1 construct: extracellular domain; Bought protein; The EC50 sentence says only 'human B7-H3 protein'; also called 人B7-H3重组蛋白; 重组人B7-H3-ECD蛋白
T1 sequence (looked up): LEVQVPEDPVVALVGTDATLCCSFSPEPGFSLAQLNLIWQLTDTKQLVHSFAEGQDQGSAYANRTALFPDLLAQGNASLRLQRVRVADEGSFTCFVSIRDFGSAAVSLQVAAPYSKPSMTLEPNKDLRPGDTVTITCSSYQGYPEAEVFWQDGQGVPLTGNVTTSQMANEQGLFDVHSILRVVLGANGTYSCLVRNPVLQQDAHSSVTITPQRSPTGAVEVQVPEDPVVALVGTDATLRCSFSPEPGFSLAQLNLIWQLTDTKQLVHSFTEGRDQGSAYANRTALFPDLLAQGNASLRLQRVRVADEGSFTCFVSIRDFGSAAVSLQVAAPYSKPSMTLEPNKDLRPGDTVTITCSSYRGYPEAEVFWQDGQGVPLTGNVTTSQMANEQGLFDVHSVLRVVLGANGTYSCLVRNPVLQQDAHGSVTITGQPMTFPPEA
Put plainly: ELISA on recombinant human B7-H3 protein (Fig. 2a, n=3). A general note: In an ELISA, binding on a coated surface is turned into a signal by an enzyme label.

B1: 嵌合单克隆抗体10-2#c (chimeric anti-B7-H3 monoclonal antibody) (antibody, human IgG1, V domains shown)
VH: EVQLQQSGPALVKPGTSVKISCKTSGYTFTEYIIHWVKQSHGKSLEWIGGINPNNGGTSYNQKFKGKATLTVDKSSSTAYMELRSLTSEDSAVYYCASRLAPSTAGFAYWGQGTMLTVSS
VL: DIVLTQTPAIMSASPGEKVTMTCRASSSVSYMHWYQQRSGTSPKTWIYDTSKLASGVPGRFSGSGSGTSYSLTISIMEAEDAATYYCQQWSSNPPTFGGGTKLEIK
notes: also called 抗B7-H3单克隆抗体; 嵌合抗体10-2#c
For orientation: EC50 means the concentration that produces a half-maximal response. As to B1, the EC50 is 2.22 ng/mL.

For the origin of these results see patent CN114539420A (SUZHOU INSTITUTE OF RESEARCH OF PSEUDO UNIV, dated 2022).
